No end group written: not given here.
Target: collagen IV/laminin (2% reduced growth factor Matrigel, Corning #354230)
Test: plate binding assay, biotinylated molecule on Matrigel-coated plate, streptavidin-HRP, absorbance 450 nm

binding capacity: 1.1 AU
B1: DS-SILY4 (biotinylated; dermatan sulfate backbone with 4 SILY peptide substitutions per DS) (peptide)
peptide: RRANAALKAGELYKSILYGSG
modifications: not fully specified (C-terminus); also: about 4 peptides per dermatan sulfate, one equivalent N-terminally biotinylated SILY-hydrazide also conjugated

Reference: patent US20230346960A1
